{"source": "patent US12454527B2", "about": "“Conjugate monomethyl auristatin E to obtain a composition for treatment of prostate cancer” (priority 2019, dated 2025)", "key": {"[1]": {"tested_on": "22Rv1 prostate cancer s.c. xenografts", "test": "Antineoplastic efficacy on 22Rv1 prostate cancer xenograft model (tumor growth inhibition)", "format": "in vivo, mice", "conditions": "for Tumor volume, V mean / TGI %: 22Rv1; for Tumor volume, V mean / TGI % / Tumor volume (individual tumors): 0.3 mg/kg i.p. x3; for TGI %: vs TGC; for Tumor volume (individual tumors): 22Rv1 s.c. xenograft, 0.3 mg/kg", "excerpt": "The evaluation of antineoplastic Conjugate (I) efficacy on xenograft model of prostate cancer.\nTo study the drug efficacy the xenograft model was selected as a quite illustrative one for preclinical studies (Application of Prostate Cancer Models for Preclinical Study: Advantages and Limitations of Cell Lines, Patient-Derived Xenografts, and Three-Dimensional Culture of Patient-Derived Cells Takeshi Namekawa, Kazuhiro Kuniko Horie-Inoue, Satoshi Inoue Cells, 2019 January; 8(1), The criteria of antineoplastic activity were tumor growth inhibition (TGI) (Experimental assessment of antineoplastic agents in the USSR and USA/IEd. Ed. Sophyina Z. P., Syrkin A. B., Goldin F., Klein I.//J.: Medicine, 1980) in treated animals (Pon) compared with control (Pk), expressed as a percentage: […]\nThe treatment in all groups was started when tumor nodes were appeared.\nTumor growth was times at the end of study (Table 1)."}, "Lymphoid Leukosis P388": {"tested_on": "Lymphoid Leukosis P388", "test": "Antineoplastic activity on lymphoid leukosis P388 model (lifespan/survival)", "format": "in vivo, male mice BDF1", "conditions": "0.5 and 1 mg/kg", "procedure": "Lymphoid Leukosis P388 (male mice BDF1)—observation was held for 30 days since the first product administration (the product administration was started 24 hours after revaccination) and it was administered 3 times intraperitoneally in a day.\n• 1. Group 1—tumor growth control (TGC) • 2. Group 2—placebo (diluent) • 3. Group 3—intraperitoneal Conjugate (I) administration in a dose of 0.5 mg/kg 3 times; • 4. Group 4—intraperitoneal Conjugate (I) administration in a dose of 1.0 mg/kg 3 times:\nExperimental animals of control group (TGC) were administered with 0.9% saline, the placebo group was injected with the diluent (DMSO+Haemodes) of similar volume. The antineoplastic activity was determined according to mice lifespan."}, "[2]": {"test": "Pharmacokinetics in plasma of rabbits after a single injection", "format": "in vivo", "conditions": "male, Soviet Chinchilla, rabbit, plasma; for level at 0.5 h: 0.50 hour; for level at 1.5 h: 1.50 hour", "excerpt": "The pharmacokinetics study for the Conjugate (I) product in plasma of rabbits and rats after a single injection.\nThe leporids and rodents are the standard targets for preclinical studies of potential drug products as well as determining the pharmacokinetic parameters. The rabbits and rats are recommended as test systems to study pharmacokinetic properties of pharmaceutical products by the regulatory documents (FIG. 7, FIG. 8).\n[…] The pharmacokinetic data, determined from this number of test animals, are sufficient to obtain the primary quantitative characteristics of test product distribution and elimination and the calculation of descriptive statistics parameters.\n• 1. Conjugate (1) • 2. Solubilizer Pluronic F127—in the amount, five-fold greater than the conjugate amount by weight. • 3, Diluent—Haemodes infusion solution. • Dimethyl sulfoxide—in the amount of 5% of the prepared volume. • Rabbit experiment (see Tables 5, 6), • Rat experiment (see Tables 7, 8)."}, "[3]": {"conditions": "rabbits N=6, read-out: Concentration in blood plasma, Geometr. mean"}, "[4]": {"conditions": "rabbits N=6, read-out: Concentration in blood plasma, Mean value"}, "[5]": {"conditions": "rabbits N=6, read-out: Concentration in blood plasma, Median"}}, "note": "Values joined by “and” are separate entries in the source; they are usually repeats but may differ in a detail not shown here. Equal entries are not always repeated. Where two headings read alike, the source gives them in different places. Starred links: 1 amine or outer side, 2 acyl side, 3 side chain; linkers in the order of their positions; H or OH if unused. Non-standard residues stand in square brackets, D forms with d. Residues, ends and D or L forms follow the SMILES beside them. ξ: configuration not given here. *: point of attachment. GluureaLys(ε-3-ClBenzyl) = O=C(O)CC[C@H](NC(=O)N[C@@H](CCCCN(Cc1cccc(Cl)c1)*)C(=O)O)C(=O)O; Dolaproine = CO[C@@H]([C@@H]1CCCN1)[C@@H](C)C(=O)O; Dil = CC[C@H](C)[C@H](NC)[C@@H](CC(=O)O)OC; X1 = O=C(CCCc1cn(CCCN[*:1])nn1)[*:2]; PABC = O=C(OCc1ccc(N[*:1])cc1)[*:2]; X2 = C[C@@H](N*)[C@@H](O)c1ccccc1; Cit = NC(=O)NCCC[C@H](N)C(=O)O; Suc = O=C(CCC(=O)[*:2])[*:1]; NMeV = CN[C@H](C(=O)O)C(C)C; ξV = CC(C)C(N)C(=O)O; Ahx = NCCCCCC(=O)O"}
{"smiles": "CC[C@H](C)[C@@H]([C@@H](CC(=O)N1CCC[C@H]1[C@H](OC)[C@@H](C)C(=O)N[C@H](C)[C@@H](O)c1ccccc1)OC)N(C)C(=O)[C@@H](NC(=O)[C@H](C(C)C)N(C)C(=O)OCc1ccc(NC(=O)[C@H](CCCNC(N)=O)NC(=O)C(NC(=O)CCCc2cn(CCCNC(=O)[C@H](Cc3ccc(O)cc3)NC(=O)[C@H](Cc3ccccc3)NC(=O)CCC(=O)NCCCCCC(=O)N(CCCC[C@H](NC(=O)N[C@@H](CCC(=O)O)C(=O)O)C(=O)O)Cc3cccc(Cl)c3)nn2)C(C)C)cc1)C(C)C", "note": "(stereo partly shown) [Conjugate (I)] ({GluureaLys(ε-3-ClBenzyl)-Ahx-Suc}-FY[X1][ξV][Cit][PABC][NMeV]V[Dil][Dolaproine]-X2)", "values": [{"measurement": "Tumor volume, V mean", "setting": "[1]; day 1", "result": 28, "unit": "mm^3"}, {"measurement": "TGI %", "setting": "[1]; day 1 after treatment completion", "result": 83, "unit": "%"}, {"measurement": "Tumor volume, V mean", "setting": "[1]; day 4", "result": 83, "unit": "mm^3"}, {"measurement": "TGI %", "setting": "[1]; day 4", "result": 85, "unit": "%"}, {"measurement": "Tumor volume, V mean", "setting": "[1]; day 8", "result": 341, "unit": "mm^3"}, {"measurement": "TGI %", "setting": "[1]; day 8", "result": 70, "unit": "%"}, {"measurement": "Tumor volume (individual tumors)", "setting": "[1]; day 1 after treatment", "result": "22 mm^3 and 17 mm^3 (2×) and 45 mm^3 and 14 mm^3 and 19 mm^3 and 30 mm^3 (2×) and 32 mm^3 and 31 mm^3 and 51 mm^3 and 34 mm^3 and 18 mm^3 and 40 mm^3"}, {"measurement": "Tumor volume (individual tumors)", "setting": "[1]; day 4 after treatment", "result": "72 mm^3 (2×) and 42 mm^3 and 75 mm^3 and 38 mm^3 and 78 mm^3 and 173 mm^3 and 63 mm^3 and 108 mm^3 and 115 mm^3 and 65 mm^3 and 74 mm^3 and 102 mm^3 and 81 mm^3"}, {"measurement": "Tumor volume (individual tumors)", "setting": "[1]; day 8 after treatment", "result": "346 mm^3 and 111 mm^3 and 369 mm^3 and 186 mm^3 and 463 mm^3 and 597 mm^3 and 570 mm^3 and 314 mm^3 and 853 mm^3 and 177 mm^3 and 247 mm^3 and 349 mm^3 and 94 mm^3 and 96 mm^3"}, {"measurement": "Dose achieving effective tumor growth inhibition (TGI)", "setting": "[1]; mouse, in vivo", "result": "approximately 0.3 mg/kg"}, {"measurement": "Antineoplastic activity", "setting": "Lymphoid Leukosis P388", "result": "presence of the antineoplastic activity"}, {"measurement": "AUC0-t", "setting": "[2]; intravenous, 0.81 mg/kg, rabbits N=6, read-out: AUC0-t, Geometr. mean", "result": 30200, "unit": "ng·h/mL"}, {"measurement": "AUC0-t", "setting": "[2]; intravenous, 0.81 mg/kg, rabbits N=6, read-out: AUC0-t, Mean value", "result": 30700, "unit": "ng·h/mL"}, {"measurement": "AUC0-t", "setting": "[2]; intravenous, 0.81 mg/kg, rabbits N=6, read-out: AUC0-t, Median", "result": 30200, "unit": "ng·h/mL"}, {"measurement": "AUC(0-inf)", "setting": "[2]; intravenous, 0.81 mg/kg, rabbits N=6, read-out: AUC0-∞, Geometr. mean", "result": 34700, "unit": "ng·h/mL"}, {"measurement": "AUC(0-inf)", "setting": "[2]; intravenous, 0.81 mg/kg, rabbits N=6, read-out: AUC0-∞, Mean value", "result": 35100, "unit": "ng·h/mL"}, {"measurement": "AUC(0-inf)", "setting": "[2]; intravenous, 0.81 mg/kg, rabbits N=6, read-out: AUC0-∞, Median", "result": 36100, "unit": "ng·h/mL"}, {"measurement": "MRT last", "setting": "[2]; intravenous, 0.81 mg/kg, rabbits N=6, read-out: MRT0-t, Geometr. mean", "result": 3.43, "unit": "h"}, {"measurement": "MRT last", "setting": "[2]; intravenous, 0.81 mg/kg, rabbits N=6, read-out: MRT0-t, Mean value", "result": 3.44, "unit": "h"}, {"measurement": "MRT last", "setting": "[2]; intravenous, 0.81 mg/kg, rabbits N=6, read-out: MRT0-t, Median", "result": 3.38, "unit": "h"}, {"measurement": "half-life", "setting": "[2]; intravenous, 0.81 mg/kg, rabbits N=6, read-out: T1/2, Geometr. mean (converted)", "result": 4.33, "unit": "h"}, {"measurement": "half-life", "setting": "[2]; intravenous, 0.81 mg/kg, rabbits N=6, read-out: T1/2, Mean value (converted)", "result": 4.58, "unit": "h"}, {"measurement": "half-life", "setting": "[2]; intravenous, 0.81 mg/kg, rabbits N=6, read-out: T1/2, Median (converted)", "result": 4.59, "unit": "h"}, {"measurement": "Vd", "setting": "[2]; intravenous, 0.81 mg/kg, rabbits N=6, read-out: Vd, Geometr. mean", "result": 0.146, "unit": "L/kg"}, {"measurement": "Vd", "setting": "[2]; intravenous, 0.81 mg/kg, rabbits N=6, read-out: Vd, Mean value", "result": 0.158, "unit": "L/kg"}, {"measurement": "Vd", "setting": "[2]; intravenous, 0.81 mg/kg, rabbits N=6, read-out: Vd, Median", "result": 0.144, "unit": "L/kg"}, {"measurement": "AUC0-t", "setting": "[2]; intravenous, 0.81 mg/kg, rabbits, individual animals, read-out: AUC0-t", "result": 31400, "unit": "ng·h/mL"}, {"measurement": "AUC(0-inf)", "setting": "[2]; intravenous, 0.81 mg/kg, rabbits, individual animals, read-out: AUC0-∞", "result": 35300, "unit": "ng·h/mL"}, {"measurement": "C0", "setting": "[2]; intravenous, 0.81 mg/kg, rabbits, individual animals, read-out: C0", "result": 10700, "unit": "ng/mL"}, {"measurement": "MRT last", "setting": "[2]; intravenous, 0.81 mg/kg, rabbits, individual animals, read-out: MRT0-t", "result": 3.12, "unit": "h"}, {"measurement": "level at 0.08 h", "setting": "[2]; [3]", "result": 10300, "unit": "ng/mL"}, {"measurement": "level at 0.08 h", "setting": "[2]; [4]", "result": 10500, "unit": "ng/mL"}, {"measurement": "level at 0.08 h", "setting": "[2]; [5]", "result": 9600, "unit": "ng/mL"}, {"measurement": "level at 0.25 h", "setting": "[2]; [3]", "result": 9410, "unit": "ng/mL"}, {"measurement": "level at 0.25 h", "setting": "[2]; [4]", "result": 9670, "unit": "ng/mL"}, {"measurement": "level at 0.25 h", "setting": "[2]; [5]", "result": 9840, "unit": "ng/mL"}, {"measurement": "level at 0.5 h", "setting": "[2]; [3]", "result": 7410, "unit": "ng/mL"}, {"measurement": "level at 0.5 h", "setting": "[2]; [4]", "result": 7580, "unit": "ng/mL"}, {"measurement": "level at 0.5 h", "setting": "[2]; [5]", "result": 7100, "unit": "ng/mL"}, {"measurement": "level at 1 h", "setting": "[2]; [3]", "result": 6040, "unit": "ng/mL"}, {"measurement": "level at 1 h", "setting": "[2]; [4]", "result": 6160, "unit": "ng/mL"}, {"measurement": "level at 1 h", "setting": "[2]; [5]", "result": 5890, "unit": "ng/mL"}, {"measurement": "level at 1.5 h", "setting": "[2]; [4]", "result": 5120, "unit": "ng/mL"}, {"measurement": "level at 1.5 h", "setting": "[2]; [5]", "result": 4970, "unit": "ng/mL"}, {"measurement": "level at 2 h", "setting": "[2]; [3]", "result": 4570, "unit": "ng/mL"}, {"measurement": "level at 2 h", "setting": "[2]; [4]", "result": 4630, "unit": "ng/mL"}, {"measurement": "level at 2 h", "setting": "[2]; [5]", "result": 4510, "unit": "ng/mL"}, {"measurement": "level at 3 h", "setting": "[2]; [3]", "result": 3440, "unit": "ng/mL"}, {"measurement": "level at 3 h", "setting": "[2]; [4]", "result": 3520, "unit": "ng/mL"}]}
